Measurements reported in patent publication US20180140673A1 (Novo Nordisk, published 2018).
Numbering of substitutions follows the chain as printed. Read-outs that look alike come from different tables or passages of the source.

What was measured:
Assay in all cases: cell-based or functional assay
[1] = molecular target: T1, FGFR1c receptor/BKL complex on differentiated mouse 3T3-L1 adipocytes (mouse, UniProt P16092 22-822; Q99N32 1-1043)
[2] = molecular target: T2, FGF receptor/BKL complex on HEK293 cells overexpressing human beta-klotho (BKL) (human, UniProt Q86Z14 1-1044)
T2 sequence (Q86Z14 whole entry, one chain of several): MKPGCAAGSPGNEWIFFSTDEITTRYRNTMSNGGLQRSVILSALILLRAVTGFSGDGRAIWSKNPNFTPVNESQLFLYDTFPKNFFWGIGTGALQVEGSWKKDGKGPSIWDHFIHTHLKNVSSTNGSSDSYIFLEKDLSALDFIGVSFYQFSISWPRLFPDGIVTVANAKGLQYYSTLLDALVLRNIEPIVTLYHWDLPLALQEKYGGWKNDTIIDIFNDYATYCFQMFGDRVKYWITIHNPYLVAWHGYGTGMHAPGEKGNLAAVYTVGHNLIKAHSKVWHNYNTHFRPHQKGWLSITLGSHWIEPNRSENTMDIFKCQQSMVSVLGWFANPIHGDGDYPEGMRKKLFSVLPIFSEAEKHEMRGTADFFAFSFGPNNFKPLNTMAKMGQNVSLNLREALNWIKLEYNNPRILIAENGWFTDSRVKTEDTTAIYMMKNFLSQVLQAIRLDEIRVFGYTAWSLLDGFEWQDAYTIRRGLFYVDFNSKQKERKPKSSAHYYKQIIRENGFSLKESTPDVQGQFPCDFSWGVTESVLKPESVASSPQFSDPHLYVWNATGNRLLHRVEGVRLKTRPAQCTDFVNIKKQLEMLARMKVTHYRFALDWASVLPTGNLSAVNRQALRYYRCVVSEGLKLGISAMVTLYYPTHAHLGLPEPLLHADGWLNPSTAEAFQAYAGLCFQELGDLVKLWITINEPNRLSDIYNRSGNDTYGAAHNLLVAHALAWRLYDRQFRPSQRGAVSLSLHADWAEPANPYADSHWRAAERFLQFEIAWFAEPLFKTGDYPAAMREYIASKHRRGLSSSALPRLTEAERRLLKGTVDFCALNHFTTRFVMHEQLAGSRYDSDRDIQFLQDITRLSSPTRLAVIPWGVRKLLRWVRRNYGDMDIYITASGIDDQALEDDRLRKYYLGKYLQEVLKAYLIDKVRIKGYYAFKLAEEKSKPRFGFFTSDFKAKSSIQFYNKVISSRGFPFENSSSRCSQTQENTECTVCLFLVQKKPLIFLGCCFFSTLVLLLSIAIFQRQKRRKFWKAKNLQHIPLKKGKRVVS

[3] = molecular target: T2, FGF receptor/BKL complex on HEK293 …; remark: listed apart in the source
[4] = molecular target: T1, FGFR1c receptor/BKL complex on …; remark: listed apart in the source
[5] = molecular target: T2, FGF receptor/BKL complex on HEK293 …; remark: listed apart in the source

T1 sequence (P16092 22-822, chain 1 of 2): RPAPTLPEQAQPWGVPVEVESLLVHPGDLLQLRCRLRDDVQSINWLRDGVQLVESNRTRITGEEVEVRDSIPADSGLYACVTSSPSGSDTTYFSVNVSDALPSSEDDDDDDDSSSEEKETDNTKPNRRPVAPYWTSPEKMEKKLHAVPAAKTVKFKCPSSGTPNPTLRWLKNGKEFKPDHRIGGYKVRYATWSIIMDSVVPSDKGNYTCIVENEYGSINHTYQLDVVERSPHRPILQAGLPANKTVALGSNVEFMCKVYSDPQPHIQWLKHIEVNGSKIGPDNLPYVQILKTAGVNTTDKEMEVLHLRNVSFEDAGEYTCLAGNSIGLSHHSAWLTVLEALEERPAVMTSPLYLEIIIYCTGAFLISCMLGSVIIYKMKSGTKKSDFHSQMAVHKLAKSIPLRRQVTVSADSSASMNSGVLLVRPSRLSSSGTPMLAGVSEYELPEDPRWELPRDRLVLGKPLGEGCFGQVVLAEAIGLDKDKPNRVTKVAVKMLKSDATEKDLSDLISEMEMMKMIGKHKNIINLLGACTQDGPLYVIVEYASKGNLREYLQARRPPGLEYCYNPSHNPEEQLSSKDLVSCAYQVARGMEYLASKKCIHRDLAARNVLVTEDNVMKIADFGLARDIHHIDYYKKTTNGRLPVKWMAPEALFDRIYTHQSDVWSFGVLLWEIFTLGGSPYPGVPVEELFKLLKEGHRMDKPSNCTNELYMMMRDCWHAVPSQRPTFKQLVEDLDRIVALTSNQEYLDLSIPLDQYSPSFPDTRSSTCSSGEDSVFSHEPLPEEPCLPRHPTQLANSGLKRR
T1 sequence (Q99N32 whole entry, chain 2 of 2): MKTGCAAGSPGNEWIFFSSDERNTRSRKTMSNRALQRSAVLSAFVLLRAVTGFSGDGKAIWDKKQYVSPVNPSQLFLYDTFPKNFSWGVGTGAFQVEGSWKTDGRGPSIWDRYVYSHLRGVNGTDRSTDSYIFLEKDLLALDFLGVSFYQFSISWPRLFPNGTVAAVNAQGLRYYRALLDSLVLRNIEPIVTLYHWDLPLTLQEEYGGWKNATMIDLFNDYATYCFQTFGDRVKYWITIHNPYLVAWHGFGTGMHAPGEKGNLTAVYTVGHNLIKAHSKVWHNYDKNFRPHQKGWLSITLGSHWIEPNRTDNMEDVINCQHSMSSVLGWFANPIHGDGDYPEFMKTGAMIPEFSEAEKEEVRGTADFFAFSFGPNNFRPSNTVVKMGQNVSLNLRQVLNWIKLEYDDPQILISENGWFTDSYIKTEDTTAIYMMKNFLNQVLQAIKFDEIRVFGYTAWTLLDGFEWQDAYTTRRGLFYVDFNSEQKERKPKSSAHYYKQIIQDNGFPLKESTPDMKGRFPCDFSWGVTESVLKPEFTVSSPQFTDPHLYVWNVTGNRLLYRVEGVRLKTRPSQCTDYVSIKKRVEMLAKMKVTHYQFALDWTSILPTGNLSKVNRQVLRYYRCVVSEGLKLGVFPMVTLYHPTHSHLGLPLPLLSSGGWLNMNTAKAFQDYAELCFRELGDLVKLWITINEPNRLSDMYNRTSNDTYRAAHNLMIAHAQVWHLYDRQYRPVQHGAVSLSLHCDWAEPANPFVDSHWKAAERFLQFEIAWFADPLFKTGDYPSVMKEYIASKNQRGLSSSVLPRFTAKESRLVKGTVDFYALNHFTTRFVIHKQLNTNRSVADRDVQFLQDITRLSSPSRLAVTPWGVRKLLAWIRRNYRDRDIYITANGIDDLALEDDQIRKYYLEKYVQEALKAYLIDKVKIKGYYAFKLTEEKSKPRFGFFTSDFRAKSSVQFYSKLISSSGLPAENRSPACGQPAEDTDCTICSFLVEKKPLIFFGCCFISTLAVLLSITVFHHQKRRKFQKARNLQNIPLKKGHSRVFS

B1: MetFGF21 (ligand)
chain: MHPIPDSSPLLQFGGQVRQRYLYTDDAQQTEAHLEIREDGTVGGAADQSPESLLQLKALKPGVIQILGVKTSRFLCQRPDGALYGSLHFDPEACSFRELLLEDGYNVYQSEAHGLPLHLPGNKSPHRDPAPRGPARFLPLPGLPPALPEPPGILAPQPPDVGSSDPLSMVGPSQGRSPSYAS
[1]
  Glucose uptake EC50 (nM), 3T3-L1 adipocytes: 1.2 nM
[2]
  EC50 (nM), pERK, HEK293/BKL cells: 1.8 nM

B2: S{Beta-181}-[2-[2-[[2-[2-[2-[[2-[2-[2-[[(4S)-4-carboxy-4-(17-carboxyheptadecanoyl-amino)butanoyl]amino]ethoxy]ethoxy]acetyl]amino]ethoxy]ethoxy]acetyl]amino]-et … (ligand)
chain: B1 chain with S182C
modifications: Cys181 (numbering of mature human FGF21): side chain on the sulfur atom; protractor C18 diacid; reagent of Example 4.5
[3]
  EC50 (0.1% HSA) (nM), pERK, HEK293/BKL cells: 71 nM
  EC50 (nM), pERK, HEK293/BKL cells: 16 nM
[4]
  Glucose uptake EC50 (nM), 3T3-L1 adipocytes: 37 nM

B3: Ala[Gln121,Leu168,Cys171]FGF21 (ligand)
chain: B1 chain with M1A, N122Q, M169L, P172C
[5]
  EC50 (nM), pERK, HEK293/BKL cells: 8 nM
